Laboratory results taken from patent publication US20180072770A1, “Influenza Virus Binding Peptides” (priority 2014, published 2018).
No end group written: not given here.

Key:
[1] = target: hemagglutinin of influenza A virus A/Mute swan/Germany/R901/06 K3141 H7N1 (influenza A virus A/Mute swan/Germany/R901/06 K3141 H7N1)
[2] = target: hemagglutinin of influenza A virus A/Mute swan/Germany/R901/06 K3141 H7N1 (influenza A virus A/Mute swan/Germany/R901/06 K3141 H7N1); experiment: cell-based or functional assay
[3] = target: hemagglutinin of influenza A virus A/Panama/2007/1999 H3N2 (influenza A virus A/Panama/2007/1999 H3N2); experiment: cell-based or functional assay

Binder | IC50 [1] [µM] | Hemagglutination inhibition (IC50, HAI) [2] [µM] | Mean Ki(HAI), hemagglutination inhibition assay, turkey erythrocytes [2] [µM] | Mean Ki(HAI), hemagglutination inhibition assay, human erythrocytes [3] [µM]
KKKKFYDYDVFY (not fully specified (C-terminus)) [reference peptide with SEQ ID NO:1 (FYDYDVFY), N-terminal (Lys)4, C-terminal amide] | 40 | 47 | 62.5 | 16
KKKKFYGYDVFF (not fully specified (C-terminus)) [peptide with SEQ ID NO:28, N-terminal (Lys)4, C-terminal amide] | 30 | 23 | 36.5 | 0.1
